# From article PMC10700546, “Atg18 oligomer organization in assembled tubes and on lipid membrane scaffolds” (Nature Communications, 2023)
# Where a chain is given by its changes, count along the chain named. Numbers in names are those of the source.
# T1: Autophagy-related protein 18 (Atg18), wildtype (Saccharomyces cerevisiae), P43601
# T1 chain: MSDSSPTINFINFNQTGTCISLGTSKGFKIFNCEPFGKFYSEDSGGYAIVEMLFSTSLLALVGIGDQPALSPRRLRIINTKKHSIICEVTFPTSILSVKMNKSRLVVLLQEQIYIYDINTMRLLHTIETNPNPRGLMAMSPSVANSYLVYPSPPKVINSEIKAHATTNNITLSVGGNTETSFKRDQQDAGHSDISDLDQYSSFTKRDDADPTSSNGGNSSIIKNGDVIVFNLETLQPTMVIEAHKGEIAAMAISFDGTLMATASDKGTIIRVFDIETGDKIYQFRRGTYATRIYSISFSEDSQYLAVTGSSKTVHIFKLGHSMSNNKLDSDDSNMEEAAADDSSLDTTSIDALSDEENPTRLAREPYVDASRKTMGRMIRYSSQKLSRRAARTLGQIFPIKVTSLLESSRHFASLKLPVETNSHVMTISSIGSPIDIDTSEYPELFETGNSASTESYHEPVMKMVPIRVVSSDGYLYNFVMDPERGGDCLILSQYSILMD
# B1: Autophagy-related protein 18 (Atg18), wildtype, P43601 1-500 (natural protein)
# chain: T1 chain
# B2: Atg18-P72A/R73A (natural protein, Saccharomyces cerevisiae, UniProt P43601 1-500, looked up)
# chain: T1 chain with P72A, R73A
# notes: Atg18, Saccharomyces cerevisiae, Uniprot ID P43601, with P72A and R73A; Same construct as the wild type apart from the two substitutions; also called Atg18-PR72AA; PR72AA; source: E. coli BL21(DE3), purified (Ni-NTA, TEV cleavage, second Ni-NTA, gel filtration); not shown: 6xHis, N-terminal, cleaved
# Legend:
# [1] = target: T1, Autophagy-related protein 18 (Atg18), …; test: single-particle cryo-EM, 2D classification; 18 uM soluble Atg18 in high-salt buffer (50 mM TRIS, 500 mM NaCl, 10 mM KPO4, 1 mM DTT, pH 7.5); monomer and dimer classes; details: remark: other sources report otherwise
# [2] = target: the molecule itself; test: cryo-EM structure; helical reconstruction of Atg18 tubes; 20 uM tube solution in tube buffer (20 mM HEPES, 100 mM KAc, 1 mM DTT, pH 7.2); self-assembly into a helical lattice
Binder,stoichiometry N [1],binding result [2]
B1,2,–
B2,–,binds
